# Results: US20250084398A1, “SYSTEMS FOR MODULATING DRUG METABOLISM BY CELLS, METHODS AND COMPOSITIONS THEREOF” (priority 2021, published 2025)
# B1: K125A GusR (protein)
# chain: MMDNMQTEAQPTRTRILNAAREIFSENGFHSASMKAICKSCAISPGTLYHHFISKEALIQAIILQDQERALARFREPIEGIHFVDYMVESIVSLTHEAFGQRALVVEIMAEGMRNPQVAAMLKNAHMTITEFVAQRMRDAQQKGEISPDINTAMTSRLLLDLTYGVLADIEAEDLAREASFAQGLRAMIGGILTAS
# B2: Y164F GusR (protein)
# chain: MMDNMQTEAQPTRTRILNAAREIFSENGFHSASMKAICKSCAISPGTLYHHFISKEALIQAIILQDQERALARFREPIEGIHFVDYMVESIVSLTHEAFGQRALVVEIMAEGMRNPQVAAMLKNKHMTITEFVAQRMRDAQQKGEISPDINTAMTSRLLLDLTFGVLADIEAEDLAREASFAQGLRAMIGGILTAS
# Tests used:
# [1] = mice, cited from earlier work
# GUS enzyme [2] = test: GUS assay: GUS specific activity in bacterial cultures, PNPG substrate, absorbance at 410 nm; format: cell-based, E. coli
# Protocol: The GUS activity is performed as previously described elsewhere, including all required assay controls. Briefly, bacterial cultures grow to reach OD600 of 0.6. Once reached the targeted growth phase, the culture is transduced with the GusR_K125A-expressing vector. One hour later, the bacterial cultures are added to the assay reaction, along with the substrate (PNPG) and the assay buffer. The assay reaction is incubated at 37° C. for 6 hours and the activity of the GUS operon is monitored by the presence of the hydrolysis product (PNP) by measuring the absorbance at 410 nm. The arbitrary units of the GUS operon specific activity are calculated as follows: […]
# Inhibition of the GUS activity using the GusR_K125A mutant was next evaluated by the inventors. More specifically, two E. coli bacterial hosts were used: BW25113 and MG1655. A plasmid that expresses the mutant repressor K125A was introduced into each of these hosts (BW25113 K125A and MG1655 K125A). The activity of the GUS operon was determined in the absence (−) or presence (+) of the GUS operon inducer PNPG. The specific units were calculated as described above. As shown by FIG. 4, GUS activity is inhibited in the presence of the dominant negative mutant repressor K125A in two bacterial hosts.
# [3] = system: E. coli K-12 BW25113 and E. coli K12 MG1655; test: TFU assay: transduction efficiency of phage-based particles into bacterial hosts; format: cell-based; settings: 1 hr incubation with lysate
# Protocol: FIG. 6. Transduction of the modulatory component into different microbiome isolates Transductions (TFU/ml) of the DOIN vector into microbiome isolates was determined using the TFU assay, as described previously. Test bacteria culture (MG1655 (grey bars), BW25113 (white bars)) was grown to reach mid-exponential growth phase and incubated for 1 hr with a lysate of transducing particles (modified bacteriophages) containing the DOIN vector expressing GusR K125A_CRISPR, used as the modulatory component. Ten-fold serial dilutions were plated in duplicates on selective plates, which only bacteria that were transduced were able to grow on. Dashed grey horizontal line indicates the assay limit of detection. Data represent at least two independent experiments.
# The lysate titer is determined using the transducing forming units (TFU) assay as previously described elsewhere.
# The produced lysates are used to transduce each of the abovementioned bacterial hosts, and the transduction efficiencies for each strain is determined by the TFU assay.
# More specifically, phage-based particle lysate was prepared as described above. The transduction efficiency of the particles against the indicated bacterial host above was determined using the TFU assay, as described previously, and presented in Table 2. The tail used for transduction is TC1 (TC1 as denoted by SEQ ID NO: 4).
# HL29 (ATCC HTB-38) cells = test: Viability of human colorectal adenocarcinoma cells incubated 48 hr with SN38G-treated bacterial lysates (XTT viability assay); format: cell-based
# Protocol: Two BW25113 bacterial cultures were used: Vector bacteria expressing empty vector, and K125A bacteria containing the DOIN vector expressing GusR mutant repressor K125A. The cultures were incubated with PNPG to induce the GUS operon and were then incubated with the indicated SN-38G (SantaCruz, 212931A) concentrations, followed by lysis of the bacteria. HL29 (ATCC® HTB-38™) cells were maintained according to the manufacture instructions and incubated for 48 hr with the different bacterial extractions. The viability of the cells, incubated with the bacterial lysates, were determined using the XTT viability assay, in three independent biological repeats using four replicates.
# GusR mutant K125A reduces the cytotoxicity of SN38 by inhibiting the metabolism of SN38G by the bacterial GUS, in an enzyme concentration-dependent manner. The study was performed as described in FIGURE, with the following modifications: The cultures were incubated with PNPG to induce the GUS operon, diluted as indicated, followed by incubation with 1 μM of SN-38G, and subsequently, lysis of the bacteria. The viability of the cells was determined as above.
# Bacteria (WT and GUS-inhibitor producing bacteria) are grown and induced using PNPG as described above. Following induction, the bacteria are lysed, and extracts are incubated with SN-38G or PNPG. At the end of the incubation period, the PNPG-incubated bacterial extracts are taken to determine the activity of the GUS. In parallel, the SN-38G-incubated bacterial extracts are added to HT29 cell culture to determine cytotoxicity and CC50.
# The rate of SN38G conversion to SN38 by the bacterial GUS in the samples is dependent on the reaction conditions (e.g., GUS enzyme activity, substrate concentration etc.), thus the resulting samples contained different concentrations of SN38. The samples were then incubated with HL29, human colorectal adenocarcinoma cell-line, and the viability of the cells was determined. Different concentrations of SN38G and bacteria were examined to evaluate their effect on the cytotoxicity of SN38. […]
# GUS enzyme [4] = settings: induced with 1 mM PNPG; cited from earlier work
# [5] = replacement of carboxylate-contacting residue; cited from earlier work
molecule,measurement,setting,value
CCc1c2c(nc3ccc(O)cc13)-c1cc3c(c(=O)n1C2)COC(=O)[C@]3(O)CC [SN38],time to peak concentration of SN38,[1]; after administration of Irinotecan 80 mg/kg,2 h
same,peak concentration of SN38,"[1]; intestine, Irinotecan 80 mg/kg",around 1 μg/gr tissue weight
B1,GUS specific activity lower than in empty vector-expressing bacteria,GUS enzyme [2]; samples of the cytotoxicity study (BW25113),around 10 fold
same,"GUS activity (specific activity, FIG. 4)","GUS enzyme [2]; two bacterial hosts, BW25113 and MG1655, absence or presence of PNPG",inhibited
same,Transduction into microbiome isolates (FIG. 6),[3],successful transduction
same,rescue of cells from the toxic effect of SN38 (FIG. 9),"HL29 (ATCC HTB-38) cells; SN38G 0.1 μM, BW25113 bacteria",completely rescued
same,"cells rescued (viability, FIG. 9)","HL29 (ATCC HTB-38) cells; SN38G 1 μM, BW25113 bacteria, un-diluted",60%
same,cells rescued from SN38 toxicity (FIG. 10),"HL29 (ATCC HTB-38) cells; SN38G 1 μM, bacteria 6-fold diluted",~100%
same,GUS activity of bacterial cells containing an expression plasmid,GUS enzyme [4],no GUS activity
same,affinity to the GUS ligand,[5],significantly lower affinity
B2,reduction of GUS activity (FIG. 7),GUS enzyme [2]; BW25113 bacteria,34 fold
same,reduction of GUS activity (FIG. 7),GUS enzyme [2]; MG1655 bacteria,~1.5 fold
